The subject of this data set is T1, Syntide-2, synthetic substrate peptide PLARTLSVAGLPGKK
T1 sequence: PLARTLSVAGLPGKK

With “Proteolytically cleaved Chk1, preparation HA2-022”, the Activity result is listed as “+38 fold”, the Rate/min (/min (at 2 nM enzyme)) stood at 0.0208 and the activity comparison entry was “the cleaved preparation was 38 fold more active than the non-cleaved preparation”.

Source of the values: patent US6670167.
